B1: glmS ribozyme (parent)
chain: AUAAAAGCGCCAGAACUACAGAAAUGUAGUUGACGAGGAGGAGGUUUAUCGAAUUUUCGGCGGAUGCCUCCAAA

Common to all, as to conditions: with glucosamine-6-phosphate
Data set [1] covers variants of B1. The data set can be described thus: kcat; higher = faster cleavage; RNA array. In short, it runs like this: (§1)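 Barcoded glmS ribozyme variants on sequenced MiSeq chips were transcribed in situ by E. coli RNA polymerase and tracked through a hybridised Cy3 probe at 37 °C. Glucosamine-6-phosphate (40 μM to 10 mM) in HEPES/KCl/Mg(OAc)2 buffer was flowed in, and tiles were imaged over ~14 h. Signals were normalised to baseline and to non-cleaving reference variants; per-tile medians were fit to one- or two-exponential decays to give kobs. kcat and KM came from weighted Michaelis–Menten fits across concentrations.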

Data set [2] covers variants of B1. Nature of the data set: KM; higher = weaker cofactor use; RNA array. In short, it runs like this: as §1
Data set [3] covers variants of B1. The data set can be described thus: self-cleavage kobs at 40 uM GlcN6P; higher = faster cleavage; RNA array. In short, it runs like this:
as §1

The variants in data set [4] derive from B1. The data set can be described thus: self-cleavage kobs at 160 uM GlcN6P; higher = faster cleavage; RNA array. In short, it runs like this: as §1
In data set [5] the parent is B1. Nature of the data set: self-cleavage kobs at 640 uM GlcN6P; higher = faster cleavage; RNA array. In short, it runs like this:
as §1

Data set [6] covers variants of B1. Nature of the data set: self-cleavage kobs at 2500 uM GlcN6P; higher = faster cleavage; RNA array. Summed up: as §1
Data set [7] covers variants of B1. Nature of the data set: self-cleavage kobs at 10000 uM GlcN6P; higher = faster cleavage; RNA array. Summed up: as §1

± gives the standard error. For some of these results: This sample holds only a part of the variants without activity.

Broadly, the kcat is the maximal rate divided by the concentration of active sites. Broadly, the KM is the substrate concentration at which the rate is half of its maximum. Take U55C C70U: the kcat in the data set with glucosamine-6-phosphate [1] turned out to be 0.00171 ± 0.00048 s⁻¹. Besides, the Michaelis-Menten constant (KM) in the data set with glucosamine-6-phosphate [2] worked out at 5960 ± 3000 µM. In addition, the “self-cleavage kobs at 40 uM GlcN6P” value in the data set with glucosamine-6-phosphate [3] amounted to 2.44e-05 ± 9e-06 s⁻¹. Also, in the data set with glucosamine-6-phosphate [4], the “self-cleavage kobs at 160 uM GlcN6P” value came to 7.16e-05 ± 3e-05 s⁻¹. Further, in the data set with glucosamine-6-phosphate [5], the “self-cleavage kobs at 640 uM GlcN6P” value was 0.000172 ± 4.7e-05 s⁻¹. The “self-cleavage kobs at 2500 uM GlcN6P” value with glucosamine-6-phosphate [6] stood at 0.000413 ± 8.4e-05 s⁻¹. In addition, the “self-cleavage kobs at 10000 uM GlcN6P” value in the data set with glucosamine-6-phosphate [7] is 0.00111 ± 0.00012 s⁻¹.
As to C50U U65G, the kcat with glucosamine-6-phosphate [1] is less than 1e-05 s⁻¹. In addition, the “self-cleavage kobs at 40 uM GlcN6P” value with glucosamine-6-phosphate [3] is less than 1e-05 s⁻¹.
As for A12G A39G, the kcat with glucosamine-6-phosphate [1] is 0.0017 ± 0.00036 s⁻¹. In addition, the KM with glucosamine-6-phosphate [2] was found to be 4960 ± 1500 µM. Moreover, the “self-cleavage kobs at 160 uM GlcN6P” value with glucosamine-6-phosphate [4] worked out at 3.92e-05 ± 9.9e-06 s⁻¹. The “self-cleavage kobs at 640 uM GlcN6P” value with glucosamine-6-phosphate [5] amounted to 0.00022 ± 2.9e-05 s⁻¹. For the same variant, the “self-cleavage kobs at 2500 uM GlcN6P” value in the data set with glucosamine-6-phosphate [6] was 0.000622 ± 9e-05 s⁻¹. Also, the “self-cleavage kobs at 10000 uM GlcN6P” value in the data set with glucosamine-6-phosphate [7] is 0.00109 ± 0.00014 s⁻¹.
For C10A U55G, the kcat with glucosamine-6-phosphate [1] was less than 1e-05 s⁻¹. The “self-cleavage kobs at 160 uM GlcN6P” value with glucosamine-6-phosphate [4] is less than 1e-05 s⁻¹.
For A39G A52G, the kcat with glucosamine-6-phosphate [1] was 0.00286 ± 0.00015 s⁻¹. The KM in the data set with glucosamine-6-phosphate [2] worked out at 3960 ± 330 µM. The “self-cleavage kobs at 160 uM GlcN6P” value with glucosamine-6-phosphate [4] came out at 0.000117 ± 3.5e-05 s⁻¹. Moreover, the “self-cleavage kobs at 640 uM GlcN6P” value with glucosamine-6-phosphate [5] came out at 0.000407 ± 8.1e-05 s⁻¹. Besides, in the data set with glucosamine-6-phosphate [6], the “self-cleavage kobs at 2500 uM GlcN6P” value worked out at 0.00108 ± 0.0003 s⁻¹. Further, the “self-cleavage kobs at 10000 uM GlcN6P” value with glucosamine-6-phosphate [7] came to 0.00205 ± 0.00028 s⁻¹.
Turning to U46G U47G, in the data set with glucosamine-6-phosphate [1], the kcat amounted to 0.00226 ± 0.00039 s⁻¹. Also, the KM with glucosamine-6-phosphate [2] is 1530 ± 410 µM. Moreover, the “self-cleavage kobs at 40 uM GlcN6P” value in the data set with glucosamine-6-phosphate [3] came to 6.82e-05 ± 2e-05 s⁻¹. For the same variant, the “self-cleavage kobs at 160 uM GlcN6P” value in the data set with glucosamine-6-phosphate [4] is 0.000208 ± 5.4e-05 s⁻¹. For the same variant, the “self-cleavage kobs at 640 uM GlcN6P” value in the data set with glucosamine-6-phosphate [5] turned out to be 0.000551 ± 0.00016 s⁻¹. Moreover, in the data set with glucosamine-6-phosphate [6], the “self-cleavage kobs at 2500 uM GlcN6P” value worked out at 0.00191 ± 0.00051 s⁻¹. Further, the “self-cleavage kobs at 10000 uM GlcN6P” value with glucosamine-6-phosphate [7] worked out at 0.00188 ± 0.00039 s⁻¹.
As for A15C U54G, the kcat with glucosamine-6-phosphate [1] came out at 0.00559 ± 0.0011 s⁻¹. Besides, the KM with glucosamine-6-phosphate [2] was determined as 2690 ± 780 µM. Moreover, the “self-cleavage kobs at 40 uM GlcN6P” value with glucosamine-6-phosphate [3] worked out at 0.000104 ± 1.6e-05 s⁻¹. In addition, the “self-cleavage kobs at 160 uM GlcN6P” value in the data set with glucosamine-6-phosphate [4] is 0.000285 ± 5.1e-05 s⁻¹. Besides, the “self-cleavage kobs at 640 uM GlcN6P” value with glucosamine-6-phosphate [5] stood at 0.000903 ± 0.00029 s⁻¹. The “self-cleavage kobs at 2500 uM GlcN6P” value with glucosamine-6-phosphate [6] came out at 0.00205 ± 0.00055 s⁻¹. For the same variant, in the data set with glucosamine-6-phosphate [7], the “self-cleavage kobs at 10000 uM GlcN6P” value was found to be 0.00475 ± 0.0006 s⁻¹.
As for U30A C58G G59A C70G, the kcat with glucosamine-6-phosphate [1] is 2.1e-05 ± 2.6e-06 s⁻¹.
For the variant U54A U56G, in the data set with glucosamine-6-phosphate [1], the kcat was 0.0107 ± 0.0029 s⁻¹. In addition, the KM with glucosamine-6-phosphate [2] is 1740 ± 650 µM. Moreover, in the data set with glucosamine-6-phosphate [3], the “self-cleavage kobs at 40 uM GlcN6P” value stood at 0.000226 ± 4.9e-05 s⁻¹. In the data set with glucosamine-6-phosphate [4], the “self-cleavage kobs at 160 uM GlcN6P” value was 0.000857 ± 0.00017 s⁻¹. Moreover, in the data set with glucosamine-6-phosphate [5], the “self-cleavage kobs at 640 uM GlcN6P” value is 0.00363 ± 0.00057 s⁻¹. In addition, the “self-cleavage kobs at 2500 uM GlcN6P” value with glucosamine-6-phosphate [6] came out at 0.00548 ± 0.00089 s⁻¹. In addition, in the data set with glucosamine-6-phosphate [7], the “self-cleavage kobs at 10000 uM GlcN6P” value worked out at 0.0131 ± 0.0038 s⁻¹.
For G29A A39U A42U, the turnover number (kcat) in the data set with glucosamine-6-phosphate [1] is 0.000919 ± 0.00015 s⁻¹. Besides, the KM in the data set with glucosamine-6-phosphate [2] came out at 3000 ± 790 µM. The “self-cleavage kobs at 160 uM GlcN6P” value with glucosamine-6-phosphate [4] turned out to be 4.77e-05 ± 2e-05 s⁻¹. Further, the “self-cleavage kobs at 640 uM GlcN6P” value with glucosamine-6-phosphate [5] is 0.000148 ± 3.3e-05 s⁻¹. For the same variant, the “self-cleavage kobs at 2500 uM GlcN6P” value with glucosamine-6-phosphate [6] was 0.000488 ± 0.00012 s⁻¹. Moreover, in the data set with glucosamine-6-phosphate [7], the “self-cleavage kobs at 10000 uM GlcN6P” value was 0.000685 ± 0.00014 s⁻¹.
As to C50A C61U, the turnover number (kcat) with glucosamine-6-phosphate [1] is less than 1e-05 s⁻¹. For the same variant, the “self-cleavage kobs at 640 uM GlcN6P” value in the data set with glucosamine-6-phosphate [5] is less than 1e-05 s⁻¹.
For U49G U65A, the kcat in the data set with glucosamine-6-phosphate [1] came to 2.22e-05 ± 4.5e-06 s⁻¹. Besides, the “self-cleavage kobs at 160 uM GlcN6P” value in the data set with glucosamine-6-phosphate [4] was less than 1e-05 s⁻¹.
In the case of G13U G32C, the kcat with glucosamine-6-phosphate [1] worked out at 0.000465 ± 0.00015 s⁻¹. The “self-cleavage kobs at 640 uM GlcN6P” value with glucosamine-6-phosphate [5] stood at 7.27e-05 ± 1e-05 s⁻¹. Besides, the “self-cleavage kobs at 2500 uM GlcN6P” value with glucosamine-6-phosphate [6] turned out to be 0.000121 ± 1.6e-05 s⁻¹. Besides, the “self-cleavage kobs at 10000 uM GlcN6P” value with glucosamine-6-phosphate [7] amounted to 0.000328 ± 2.8e-05 s⁻¹.
As for A48G A53C, in the data set with glucosamine-6-phosphate [1], the kcat was determined as 5.9e-05 ± 9.7e-06 s⁻¹. Moreover, in the data set with glucosamine-6-phosphate [6], the “self-cleavage kobs at 2500 uM GlcN6P” value came to 7.97e-05 ± 1.7e-05 s⁻¹. For the same variant, the “self-cleavage kobs at 10000 uM GlcN6P” value with glucosamine-6-phosphate [7] stood at 5.4e-05 ± 7.2e-06 s⁻¹.
Consider A12U U47G C70G, for which the kcat with glucosamine-6-phosphate [1] is 0.000218 ± 4.7e-05 s⁻¹. In addition, in the data set with glucosamine-6-phosphate [3], the “self-cleavage kobs at 40 uM GlcN6P” value was 6.36e-05 ± 1.3e-05 s⁻¹. The “self-cleavage kobs at 160 uM GlcN6P” value with glucosamine-6-phosphate [4] turned out to be 7.51e-05 ± 1.5e-05 s⁻¹. Also, in the data set with glucosamine-6-phosphate [5], the “self-cleavage kobs at 640 uM GlcN6P” value was 0.000234 ± 3.9e-05 s⁻¹. Further, the “self-cleavage kobs at 2500 uM GlcN6P” value with glucosamine-6-phosphate [6] turned out to be 0.000217 ± 3.7e-05 s⁻¹. In addition, the “self-cleavage kobs at 10000 uM GlcN6P” value with glucosamine-6-phosphate [7] amounted to 0.000201 ± 3.3e-05 s⁻¹.
As to C11A U31A, the kcat in the data set with glucosamine-6-phosphate [1] was determined as 0.00019 ± 2e-05 s⁻¹. Besides, the KM with glucosamine-6-phosphate [2] was determined as 1480 ± 350 µM. In addition, the “self-cleavage kobs at 640 uM GlcN6P” value with glucosamine-6-phosphate [5] is 5.42e-05 ± 1e-05 s⁻¹. For the same variant, the “self-cleavage kobs at 2500 uM GlcN6P” value with glucosamine-6-phosphate [6] amounted to 0.000147 ± 2.8e-05 s⁻¹. The “self-cleavage kobs at 10000 uM GlcN6P” value with glucosamine-6-phosphate [7] was found to be 0.000158 ± 2.3e-05 s⁻¹.

(Values after the supplement of paper PMC7125110.)
